The supplement of paper PMC11246515
± gives the standard deviation of the averaged measurements.

Experiment: total protein half-life in vivo (active degradation + dilution); higher = more stable protein
[1] = E. coli NCM3722 delta-clpP delta-lon delta-hslV, growth: N-lim chemostat, doubling time 6 h
[2] = E. coli NCM3722 delta-clpP, growth: N-lim chemostat, doubling time 6 h
[3] = E. coli NCM3722 delta-hslV, growth: N-lim chemostat, doubling time 6 h
[4] = E. coli NCM3722 delta-lon, growth: N-lim chemostat, doubling time 6 h
[5] = E. coli NCM3722 delta-smpB, growth: N-lim chemostat, doubling time 6 h
[6] = wild type E. coli NCM3722, growth: C-lim chemostat, doubling time 3 h
[7] = wild type E. coli NCM3722, growth: C-lim chemostat, doubling time 6 h
[8] = wild type E. coli NCM3722, growth: C-lim chemostat, doubling time 12 h
[9] = wild type E. coli NCM3722, growth: N-lim chemostat, doubling time 6 h
[10] = wild type E. coli NCM3722, growth: N-lim chemostat, doubling time 12 h
[11] = wild type E. coli NCM3722, growth: P-lim chemostat, doubling time 6 h
[12] = wild type E. coli NCM3722, growth: P-lim chemostat, doubling time 12 h

MHDANIRVAIAGAGGRMGRQLIQAALALEGVQLGAALEREGSSLLGSDAGELAGAGKTGVTVQSSLDAVKDDFDVFIDFTRPEGTLNHLAFCRQHGKGMVIGTTGFDEAGKQAIRDAAADIAIVFAANFSVGVNVMLKLLEKAAKVMGDYTDIEIIEAHHRHKVDAPSGTALAMGEAIAHALDKDLKDCAVYSREGHTGERVPGTIGFATVRAGDIVGEHTAMFADIGERLEITHKASSRMTFANGAVRSALWLSGKESGLFDMRDVLDLNNL
total protein half-life in vivo [1]: 5.49 ± 0.1 h
total protein half-life in vivo [2]: 4.89 ± 0.007 h
total protein half-life in vivo [3]: 5.04 ± 0.21 h
total protein half-life in vivo [4]: 5.38 ± 0.62 h
total protein half-life in vivo [5]: 4.76 ± 0.23 h
total protein half-life in vivo [6]: 2.91 ± 0.068 h
total protein half-life in vivo [7]: 6.1 ± 0.19 h
total protein half-life in vivo [8]: 12 ± 0.68 h
total protein half-life in vivo [9]: 5.092 ± 0.023 h
total protein half-life in vivo [10]: 9.28 ± 0.75 h
total protein half-life in vivo [11]: 5.71 ± 0.34 h
total protein half-life in vivo [12]: 12.5 ± 1.2 h

MHELSLCQSAVEIIQRQAEQHDVKRVTAVWLEIGALSCVEESAVRFSFEIVCHGTVAQGCDLHIVYKPAQAWCWDCSQVVEIHQHDAQCPLCHGERLRVDTGDSLIVKSIEVE [P0A703]
total protein half-life in vivo [1]: 4.94 ± 1.4 h
total protein half-life in vivo [2]: 3.51 h
total protein half-life in vivo [4]: 3.49 ± 0.32 h
total protein half-life in vivo [5]: 3.57 h
total protein half-life in vivo [8]: 9.8 h
total protein half-life in vivo [9]: 3.97 ± 0.6 h
total protein half-life in vivo [10]: 5.27 ± 1.4 h
total protein half-life in vivo [11]: 3.77 h
total protein half-life in vivo [12]: 8.0989 ± 0.006 h

MHFLRRPISLRQRLILTIGAILLVFELISVFWLWHESTEQIQLFEQALRDNRNNDRHIMREIREAVASLIVPGVFMVSLTLFICYQAVRRITRPLAELQKELEARTADNLTPIAIHSATLEIEAVVSALNDLVSRLTSTLDNERLFTADVAHELRTPLAGVRLHLELLAKTHHIDVAPLVARLDQMMESVSQLLQLARAGQSFSSGNYQHVKLLEDVILPSYDELSTMLDQRQQTLLLPESAADITVQGDATLLRMLLRNLVENAHRYSPQGSNIMIKLQEDDGAVMAVEDEGPGIDESKCGELSKAFVRMDSRYGGIGLGLSIVSRITQLHHGQFFLQNRQETSGTRAWVRLKKDQYVANQI
total protein half-life in vivo [1]: 5.995 ± 0.044 h
total protein half-life in vivo [3]: 4.89 ± 1.3 h
total protein half-life in vivo [4]: 6.2 ± 1.3 h
total protein half-life in vivo [5]: 5.5 ± 0.35 h
total protein half-life in vivo [6]: 3.17 ± 0.22 h
total protein half-life in vivo [7]: 5.99 ± 0.74 h
total protein half-life in vivo [8]: 11.5 ± 0.59 h
total protein half-life in vivo [9]: 5.9 ± 0.18 h
total protein half-life in vivo [10]: 12.7 ± 0.62 h
total protein half-life in vivo [11]: 6.25 ± 0.75 h
total protein half-life in vivo [12]: 11.1 ± 1.5 h

MHITLRQLEVFAEVLKSGSTTQASVMLALSQSAVSAALTDLEGQLGVQLFDRVGKRLVVNEHGRLLYPRALALLEQAVEIEQLFREDNGAIRIYASSTIGNYILPAVIARYRHDYPQLPIELSVGNSQDVMQAVLDFRVDIGFIEGPCHSTEIISEPWLEDELVVFAAPTSPLARGPVTLEQLAAAPWILRERGSGTREIVDYLLLSHLPKFEMAMELGNSEAIKHAVRHGLGISCLSRRVIEDQLQAGTLSEVAVPLPRLMRTLWRIHHRQKHLSNALRRFLDYCDPANVPR [P0ACR4]
total protein half-life in vivo [1]: 5.84 ± 0.54 h
total protein half-life in vivo [2]: 7.58 h
total protein half-life in vivo [3]: 5.48 h
total protein half-life in vivo [4]: 5.76 ± 0.15 h
total protein half-life in vivo [5]: 6.21 h
total protein half-life in vivo [6]: 2.32 h
total protein half-life in vivo [7]: 5.78 ± 0.65 h
total protein half-life in vivo [8]: 13 h
total protein half-life in vivo [9]: 4.98 ± 0.021 h
total protein half-life in vivo [10]: 9.4289 ± 0.0056 h
total protein half-life in vivo [11]: 5.59 ± 0.33 h
total protein half-life in vivo [12]: 10.5 ± 1.9 h

MHNQAPIQRRKSTRIYVGNVPIGDGAPIAVQSMTNTRTTDVEATVNQIKALERVGADIVRVSVPTMDAAEAFKLIKQQVNVPLVADIHFDYRIALKVAEYGVDCLRINPGNIGNEERIRMVVDCARDKNIPIRIGVNAGSLEKDLQEKYGEPTPQALLESAMRHVDHLDRLNFDQFKVSVKASDVFLAVESYRLLAKQIDQPLHLGITEAGGARSGAVKSAIGLGLLLSEGIGDTLRVSLAADPVEEIKVGFDILKSLRIRSRGINFIACPTCSRQEFDVIGTVNALEQRLEDIITPMDVSIIGCVVNGPGEALVSTLGVTGGNKKSGLYEDGVRKDRLDNNDMIDQLEARIRAKASQLDEARRIDVQQVEK
total protein half-life in vivo [1]: 4.85 ± 0.2 h
total protein half-life in vivo [2]: 2.41 ± 0.11 h
total protein half-life in vivo [3]: 3.23 ± 0.18 h
total protein half-life in vivo [4]: 3.18 ± 0.078 h
total protein half-life in vivo [5]: 2.88 ± 0.19 h
total protein half-life in vivo [6]: 2.61 ± 0.25 h
total protein half-life in vivo [7]: 4.69 ± 0.24 h
total protein half-life in vivo [8]: 7.78 ± 0.65 h
total protein half-life in vivo [9]: 3.05 ± 0.092 h
total protein half-life in vivo [10]: 4.29 ± 0.3 h
total protein half-life in vivo [11]: 4.01 ± 0.28 h
total protein half-life in vivo [12]: 7.02 ± 0.51 h

MHRQSFFLVPLICLSSALWAAPATVNVEVLQDKLDHPWALAFLPDNHGMLITLRGGELRHWQAGKGLSAPLSGVPDVWAHGQGGLLDVVLAPDFAQSRRIWLSYSEVGDDGKAGTAVGYGRLSDDLSKVTDFRTVFRQMPKLSTGNHFGGRLVFDGKGYLFIALGENNQRPTAQDLDKLQGKLVRLTDQGEIPDDNPFIKESGARAEIWSYGIRNPQGMAMNPWSNALWLNEHGPRGGDEINIPQKGKNYGWPLATWGINYSGFKIPEAKGEIVAGTEQPVFYWKDSPAVSGMAFYNSDKFPQWQQKLFIGALKDKDVIVMSVNGDKVTEDGRILTDRGQRIRDVRTGPDGYLYVLTDESSGELLKVSPRN
total protein half-life in vivo [1]: 1.95 ± 0.037 h
total protein half-life in vivo [2]: 2.22 ± 1.1 h
total protein half-life in vivo [3]: 1.44 ± 0.036 h
total protein half-life in vivo [5]: 1.43 ± 0.033 h
total protein half-life in vivo [6]: 1.63 ± 0.43 h
total protein half-life in vivo [7]: 4.09 h
total protein half-life in vivo [8]: 5.83 ± 1.6 h
total protein half-life in vivo [9]: 2.13 h
total protein half-life in vivo [12]: 6.77 h

MHSERAPFFLKLAAWGGVVFLHFPILIIAAYAFNTEDAAFSFPPQGLTLRWFSVAAQRSDILDAVTLSLKVAALATLIALVLGTLAAAALWRRDFFGKNAISLLLLLPIALPGIVTGLALLTAFKTINLEPGFFTIVVGHATFCVVVVFNNVIARFRRTSWSLVEASMDLGANGWQTFRYVVLPNLSSALLAGGMLAFALSFDEIIVTTFTAGHERTLPLWLLNQLGRPRDVPVTNVVALLVMLVTTLPILGAWWLTREGDNGQ [P0AFR9]
total protein half-life in vivo [1]: 6.7 h

MHSQIWVVSTLLISIVLIVLTIVKFKFHPFLALLLASFFVGTMMGMGPLDMVNAIESGIGGTLGFLAAVIGLGTILGKMMEVSGAAERIGLTLQRCRWLSVDVIMVLVGLICGITLFVEVGVVLLIPLAFSIAKKTNTSLLKLAIPLCTALMAVHCVVPPHPAALYVANKLGADIGSVIVYGLLVGLMASLIGGPLFLKFLGQRLPFKPVPTEFADLKVRDEKTLPSLGATLFTILLPIALMLVKTIAELNMARESGLYILVEFIGNPITAMFIAVFVAYYVLGIRQHMSMGTMLTHTENGFGSIANILLIIGAGGAFNAILKSSSLADTLAVILSNMHMHPILLAWLVALILHAAVGSATVAMMGATAIVAPMLPLYPDISPEIIAIAIGSGAIGCTIVTDSLFWLVKQYCGATLNETFKYYTTATFIASVVALAGTFLLSFII
total protein half-life in vivo [5]: 4.91 h
total protein half-life in vivo [7]: 5.8 h
total protein half-life in vivo [8]: 11.9 h
total protein half-life in vivo [10]: 9.38 h

MHVTAKPSSFQCNLKCDYCFYLEKESQFTHEKWMDDSTLKEFIKQYIAASGNQVYFTWQGGEPTLAGLDFFRKVIHYQQRYAGQKRIFNALQTNGILLNNEWCAFLKEHEFLVGISIDGPQELHDRYRRSNSGNGTFAKVIAAIERLKSYQVEFNTLTVINNVNVHYPLEVYHFLKSIGSKHMQFIELLETGTPNIDFSGHSENTFRIIDFSVPPTAYGKFMSTIFMQWVKNDVGEIFIRQFESFVSRFLGNGHTSCIFQESCKDNLVVESNGDIYECDHFVYPQYKIGNINKSELKTMNSVQLTAQKKRIPAKCQQCAYKPICNGGCPKHRITKVNNETVSYFCEGYKILFSTMVPYMNAMVELAKNRVPLYHIMDVAKQMENN
total protein half-life in vivo [6]: 1.12 ± 0.083 h
total protein half-life in vivo [7]: 1.77 ± 0.19 h
total protein half-life in vivo [8]: 2.03 h
